Values of other authors as cited in PMC5808296.
Read-outs that look alike come from different tables or passages of the source.

How the values were obtained:
[1] = target: Aβ42 Aβ1-42 (Mus musculus) (UniProt P12023)
[2] = target: Aβ42 Aβ1-42 (Mus musculus) (UniProt P12023); remark: listed apart in the source

Row | Kd [1] [nM] | Kd [2] [nM] | Substance
1 | 0.545 | – | C-FRHMTEQ-C peptide
2 | – | 0.22 | C-IPLPFYN-C peptide
